± gives the standard deviation.
Assay: protein stability index of a GFP-peptide fusion (GPS, HEK-293T) (PSI 1-6); higher = more stable
Details: c terminus: a fixed tail appended
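Note: 24-mer peptide tiles fused after GFP, lentivirally expressed, FACS-sorted into six equal bins by GFP/DsRed ratio, decoded by Illumina sequencing, PSI is the read-weighted mean bin number.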

Sequence: CMVCKKKIGNSAFARYPNGVVVHY [VPS39]
- protein stability index (treatment: DMSO): 2.37 ± 0.17
- protein stability index (treatment: MLN4924 1 uM, 8 h): 2.51 ± 0.41

Sequence: QNPGKFDELDMSPGDPKWLDVIER [TBC1D10A]
- protein stability index (treatment: DMSO): 4.27 ± 0.081
- protein stability index (treatment: MLN4924 1 uM, 8 h): 4.49 ± 0.28

Sequence: VEKVLRRWVDEEWPKRERGDPSRH [EDARADD]
- protein stability index (treatment: DMSO): 2.97 ± 0.43
- protein stability index (treatment: MLN4924 1 uM, 8 h): 3.28 ± 0.67

Sequence: KKFRTKSRTWAGEKSKREMYSRLK [CDC25A]
- protein stability index (treatment: DMSO): 3.05 ± 0.39
- protein stability index (treatment: MLN4924 1 uM, 8 h): 3.46 ± 0.28

Sequence: FPRKSELTEHQRIHTGIKPHQCSE [ZNF649]
- protein stability index (treatment: DMSO): 3.92 ± 0.23
- protein stability index (treatment: MLN4924 1 uM, 8 h): 4.24 ± 0.18

Sequence: SGSGGTVAPATMGSARSHASSRAS [ZBTB22]
- protein stability index (treatment: DMSO): 4.77 ± 0.18
- protein stability index (treatment: MLN4924 1 uM, 8 h): 4.68 ± 0.24

Sequence: PEPVYFHCAAVTPAGCMYIHGGVV [KLHDC10]
- protein stability index (treatment: DMSO): 2.53 ± 0.56
- protein stability index (treatment: MLN4924 1 uM, 8 h): 2.85 ± 0.71

Sequence: PAVTPDPWGVQGGQESEVPYKREE [PKD2L1]
- protein stability index (treatment: DMSO): 5.24 ± 0.33
- protein stability index (treatment: MLN4924 1 uM, 8 h): 5.49 ± 0.16

Sequence: APVAEAWIPQAGPPELNYGATGEC [ZNF449]
- protein stability index (treatment: DMSO): 4.78 ± 0.12
- protein stability index (treatment: MLN4924 1 uM, 8 h): 4.88 ± 0.33

Sequence: LADPYRSLKAPGARGPGPEGGGGG [JUNB]
- protein stability index (treatment: DMSO): 4.63 ± 0.53
- protein stability index (treatment: MLN4924 1 uM, 8 h): 4.71 ± 0.47

Sequence: NGPDCGYGSFHQQYWLDGKIIAVG [ATE1]
- protein stability index (treatment: DMSO): 2.35 ± 0.42
- protein stability index (treatment: MLN4924 1 uM, 8 h): 2.26 ± 0.26

Sequence: AFEESKIDEHHFVAVALRKPDGSR [AASDHPPT]
- protein stability index (treatment: DMSO): 4.01 ± 0.52
- protein stability index (treatment: MLN4924 1 uM, 8 h): 4.2 ± 0.53

Sequence: VSLGLGQPWHAVMDIESLSVFTEP [FBXO33]
- protein stability index (treatment: DMSO): 2.31 ± 0.56
- protein stability index (treatment: MLN4924 1 uM, 8 h): 1.99 ± 0.26

Sequence: DSSMILTVPGQALACGSNRFNKLG [NEK8]
- protein stability index (treatment: DMSO): 3.29 ± 0.17
- protein stability index (treatment: MLN4924 1 uM, 8 h): 3.2 ± 0.22

Sequence: RDRDGRITVAELREAVPALLGEPL [CABP4]
- protein stability index (treatment: DMSO): 3.78 ± 0.23
- protein stability index (treatment: MLN4924 1 uM, 8 h): 3.95 ± 0.35

Sequence: GGGISCVLQDGCVFEKAGVSISVV [CPOX]
- protein stability index (treatment: DMSO): 2.23 ± 0.63
- protein stability index (treatment: MLN4924 1 uM, 8 h): 2.41 ± 0.48

Sequence: NLFFAWIKIFKYISFNKTMTQLSS [PKD2L1]
- protein stability index (treatment: DMSO): 3.05 ± 0.49
- protein stability index (treatment: MLN4924 1 uM, 8 h): 2.99 ± 0.44

Sequence: SAETGSPRLTMHYPCLEKPRIWSL [IRX6]
- protein stability index (treatment: DMSO): 2.4 ± 0.1
- protein stability index (treatment: MLN4924 1 uM, 8 h): 2.22 ± 0.43

Sequence: MDVSREEAPQWLESDSCQKCEQPF [WDFY1]
- protein stability index (treatment: DMSO): 4.89 ± 0.17
- protein stability index (treatment: MLN4924 1 uM, 8 h): 4.92 ± 0.32

Sequence: EHRRTARRTPPGQQRPHPRSHSRE [ELOA2]
- protein stability index (treatment: DMSO): 5.47 ± 0.14
- protein stability index (treatment: MLN4924 1 uM, 8 h): 5.32 ± 0.39

Sequence: RNQGNFSVVGTVLAATQAEKAVAN [ZC2HC1C]
- protein stability index (treatment: DMSO): 4.28 ± 0.15
- protein stability index (treatment: MLN4924 1 uM, 8 h): 4.24 ± 0.42

Sequence: RTVNALEIELQAQHNLRYSLENTL [KRT33B]
- protein stability index (treatment: DMSO): 2.31 ± 0.25
- protein stability index (treatment: MLN4924 1 uM, 8 h): 2.29 ± 0.22

Sequence: ARLVFVPLLLLCNIKPRRYLTVVF [SLC29A1]
- protein stability index (treatment: DMSO): 2.92 ± 0.51
- protein stability index (treatment: MLN4924 1 uM, 8 h): 2.91 ± 0.87

Sequence: QMGVSAKRRPKAQPTTLVLPPQYV [MED27]
- protein stability index (treatment: DMSO): 2.99 ± 0.19
- protein stability index (treatment: MLN4924 1 uM, 8 h): 3.1 ± 0.19

Sequence: TSQKVARKFWWKNVKMIVLICVIV [VAMP8]
- protein stability index (treatment: DMSO): 2.42 ± 0.31
- protein stability index (treatment: MLN4924 1 uM, 8 h): 2.15 ± 0.29

Sequence: HQDVDLVCINLPPPLTRQIAVKTL [GFOD1]
- protein stability index (treatment: DMSO): 2.47 ± 0.33
- protein stability index (treatment: MLN4924 1 uM, 8 h): 2.53 ± 0.27

Sequence: RSHENKLRQLTAELAEHRCHPVER [PSD2]
- protein stability index (treatment: DMSO): 3.84 ± 0.18
- protein stability index (treatment: MLN4924 1 uM, 8 h): 4.02 ± 0.14

Sequence: RESRILFSTWNLDHIIEKKRTIIP [DFFB]
- protein stability index (treatment: DMSO): 2.35 ± 0.22
- protein stability index (treatment: MLN4924 1 uM, 8 h): 2.52 ± 0.22

Sequence: MVKIFRLLPTKSLVALKCTCCYFK [FBXO34]
- protein stability index (treatment: DMSO): 3.18 ± 0.48
- protein stability index (treatment: MLN4924 1 uM, 8 h): 2.71 ± 0.69

Sequence: YRFHEHWRFVLQRLVFLAAFVVYL [TSN]
- protein stability index (treatment: DMSO): 2.86 ± 0.37
- protein stability index (treatment: MLN4924 1 uM, 8 h): 2.8 ± 0.96

Sequence: GLDYLHSKCKIIHTDIKPENILMC [SRPK2]
- protein stability index (treatment: DMSO): 2.06 ± 0.22
- protein stability index (treatment: MLN4924 1 uM, 8 h): 1.9 ± 0.35

Sequence: LDLIFHVALPTEAEFQLVRDVVLC [TENT5C]
- protein stability index (treatment: DMSO): 2.98 ± 0.27
- protein stability index (treatment: MLN4924 1 uM, 8 h): 2.68 ± 0.73

Sequence: ESVVSSAVPAAATRTTSFKGTSPS [KCTD10]
- protein stability index (treatment: DMSO): 5.09 ± 0.056
- protein stability index (treatment: MLN4924 1 uM, 8 h): 5.25 ± 0.21

Sequence: APDKTSTVLTRHSQPATPTPLQSR [PDLIM7]
- protein stability index (treatment: DMSO): 4.68 ± 0.17
- protein stability index (treatment: MLN4924 1 uM, 8 h): 4.82 ± 0.23

Sequence: EIAPQHRRGLLVSLNELMIVIGIL [SLC2A12]
- protein stability index (treatment: DMSO): 2.07 ± 0.11
- protein stability index (treatment: MLN4924 1 uM, 8 h): 2.33 ± 0.16

Sequence: DIMETSGWKSMIQSHPHLVAEAFR [SPOPL]
- protein stability index (treatment: DMSO): 2.49 ± 0.37
- protein stability index (treatment: MLN4924 1 uM, 8 h): 2.68 ± 0.54

Sequence: NGLNARMMHGGSYSLTTSSTHKRS [RAB40B]
- protein stability index (treatment: DMSO): 4.28 ± 0.12
- protein stability index (treatment: MLN4924 1 uM, 8 h): 4.34 ± 0.19

Sequence: PFFVLNSDVICDFPFQAMVQFHRH [GMPPB]
- protein stability index (treatment: DMSO): 2.4 ± 0.67
- protein stability index (treatment: MLN4924 1 uM, 8 h): 2.34 ± 0.29

Sequence: EARKYASNLLKAGFIRHTVNKITF [DVL3]
- protein stability index (treatment: DMSO): 2.31 ± 0.48
- protein stability index (treatment: MLN4924 1 uM, 8 h): 2.16 ± 0.18

Sequence: QIGFSVGLGNIWRFPYLCQKNGGG [SLC6A17]
- protein stability index (treatment: DMSO): 2.02 ± 0.37
- protein stability index (treatment: MLN4924 1 uM, 8 h): 1.9 ± 0.33

Sequence: LAATQAEKAVANFDRTEWVQIRRL [ZC2HC1C]
- protein stability index (treatment: DMSO): 3.45 ± 0.11
- protein stability index (treatment: MLN4924 1 uM, 8 h): 3.16 ± 0.37

Sequence: LRHLELLDEFARENIDSLYNVNLS [SCNN1D]
- protein stability index (treatment: DMSO): 2.66 ± 0.092
- protein stability index (treatment: MLN4924 1 uM, 8 h): 2.94 ± 0.34

Sequence: SPSHSPEHRRTARRTPPGQQRPHP [ELOA2]
- protein stability index (treatment: DMSO): 5.06 ± 0.18
- protein stability index (treatment: MLN4924 1 uM, 8 h): 5.06 ± 0.22

Sequence: RAIMAHMTVEEIYKDRQKFSEQVF [FLOT1]
- protein stability index (treatment: DMSO): 2.52 ± 0.32
- protein stability index (treatment: MLN4924 1 uM, 8 h): 2.74 ± 0.3

Source: the supplement of paper PMC10567573
